{
  "source": "paper PMC4122144",
  "origin": "cited, not measured here",
  "conditions_in_all_cases": "Not stated. Presumably ground-state bR, since the values are compared with calculations on the 1QHJ ground-state structure.",
  "key": {"[1]": {"molecular_target": "Arg82 (UniProt position 95, PIYWARYADWL)"}, "[2]": {"molecular_target": "Asp96 (UniProt position 109, PLLLLDLALLV)"}, "[3]": {"molecular_target": "Asp212 (UniProt position 225, LFMVLDVSAKV)"}, "[4]": {"molecular_target": "Asp85 (UniProt position 98, WARYADWLFTT)"}, "[5]": {"molecular_target": "Asp115 (UniProt position 128, ALVGADGIMIG)"}},
  "data": [
    {"substance": "Bacteriorhodopsin (Halobacterium salinarum (not stated in the article; inferred))", "values": [
      {"measurement": "pKa", "setting": "[1]", "result": ">13.8"},
      {"measurement": "pKa", "setting": "[2]", "result": ">12.0"},
      {"measurement": "pKa", "setting": "[3]", "result": "< 2.5"},
      {"measurement": "pKa", "setting": "[4]", "result": 2.6},
      {"measurement": "pKa", "setting": "[5]", "result": "> 9.5"}
    ]}
  ]
}
